Results published in patent publication US20240252601A1.

Assays:
Experiment in all cases: cell-based or functional assay
[1] = target: SARS-CoV2 Spike D614G (on pVSV-Luc-SARS-CoV2-S pseudovirus) (SARS-CoV2) (UniProt P0DTC2)
[2] = target: SARS-CoV2 Spike, Omicron BA.4/BA.5 variant (on pseudovirus) (SARS-CoV2)
[3] = target: SARS-CoV2 Spike, Omicron BA.4.6 variant (on pseudovirus) (SARS-CoV2)
[4] = target: SARS-CoV2 Spike, Omicron BA.2 variant (on pseudovirus) (SARS-CoV2)
[5] = target: SARS-CoV2 Spike, Omicron BA.1 variant (on pseudovirus) (SARS-CoV2)
[6] = target: SARS-CoV2 Spike, Omicron BA.2.12.1 variant (on pseudovirus) (SARS-CoV2)
[7] = target: SARS-CoV2 Spike, Omicron XBB1.5 variant (on pseudovirus) (SARS-CoV2)

Sequence of ACE2 (615/615)-IgG-Fc (Q9BYF1 18-615 limits assumed): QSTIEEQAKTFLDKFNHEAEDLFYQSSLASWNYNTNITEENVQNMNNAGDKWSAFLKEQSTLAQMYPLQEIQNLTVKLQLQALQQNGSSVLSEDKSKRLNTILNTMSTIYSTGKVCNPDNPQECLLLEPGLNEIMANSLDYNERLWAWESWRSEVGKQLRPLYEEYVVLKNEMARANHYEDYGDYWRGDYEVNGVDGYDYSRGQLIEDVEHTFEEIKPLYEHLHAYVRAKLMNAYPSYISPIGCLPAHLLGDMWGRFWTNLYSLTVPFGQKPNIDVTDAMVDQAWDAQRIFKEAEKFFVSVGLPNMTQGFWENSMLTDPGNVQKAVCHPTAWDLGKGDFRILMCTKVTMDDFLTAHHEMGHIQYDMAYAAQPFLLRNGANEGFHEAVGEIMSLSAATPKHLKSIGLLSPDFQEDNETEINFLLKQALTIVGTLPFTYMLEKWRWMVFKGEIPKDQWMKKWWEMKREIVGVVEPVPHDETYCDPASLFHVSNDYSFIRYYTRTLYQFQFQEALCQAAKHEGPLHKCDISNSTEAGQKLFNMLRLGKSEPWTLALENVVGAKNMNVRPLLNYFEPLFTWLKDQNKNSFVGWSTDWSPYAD
Sequence of ACE2 (615/615)-IgG-Fc (Q9BYF1 18-615 limits assumed): as above

## ACE2 (615/615)-IgG-Fc (from UniProt Q9BYF1 18-615; Q9BYF1 18-615) (Fc fusion)
[1]
  Fold reduction from against D614G: 19.4 fold
  IC50 [M], neutralization: 1.03e-10 M
[2]
  Fold reduction from against D614G: 11.6 fold
  IC50 [M], neutralization: 6.17e-11 M
[3]
  Fold reduction from against D614G: 6.32 fold
  IC50 [M], neutralization: 3.35e-11 M
[4]
  Fold reduction from against D614G: 3.51 fold
  IC50 [M], neutralization: 1.86e-11 M
[5]
  Fold reduction from against D614G: 1.25 fold
  IC50 [M], neutralization: 6.61e-12 M
[6]
  Fold reduction from against D614G: 2.32 fold
  IC50 [M], neutralization: 1.23e-11 M

## ACE2 v2.4 (615)-Fc (x2), second row of this label in Table 6 (Fc fusion)
[1]
  Fold reduction from against D614G: 515 fold
  IC50 [M], neutralization: 2.73e-09 M
[2]
  Fold reduction from against D614G: 317 fold
  IC50 [M], neutralization: 1.68e-09 M
[3]
  Fold reduction from against D614G: 343 fold
  IC50 [M], neutralization: 1.82e-09 M
[4]
  Fold reduction from against D614G: 515 fold
  IC50 [M], neutralization: 2.73e-09 M
[5]
  Fold reduction from against D614G: 240 fold
  IC50 [M], neutralization: 1.27e-09 M
[6]
  Fold reduction from against D614G: 468 fold
  IC50 [M], neutralization: 2.48e-09 M

## REGEN-COV (REGN10933+REGN10987)
[1]
  IC50 [M], neutralization: 5.2e-12 M
[7]
  IC50 [M], neutralization: > 2e-08 M
